Target: FGFR1 (UniProt P16092)
Assay: co-IP, Nf2-Flag mutants with FGFR1-HA
Settings: reference: wild-type Nf2

Substance	binding against the reference (sites S315)	binding against the reference (sites S518)
Nf2 (Merlin) (from UniProt P46662) S315A	lost	–
Nf2 (Merlin) (from UniProt P46662) S518A	–	lost

From publication PMC12487865
